Substitutions are numbered along the chain they refer to. Numbers in names are those of the source.
T1: human Fcγ receptor hFcgRIIa (R) (human, UniProt P12318 36-217)
T1 construct: also called FcγRIIa (type R); FcγIIA
T1 chain: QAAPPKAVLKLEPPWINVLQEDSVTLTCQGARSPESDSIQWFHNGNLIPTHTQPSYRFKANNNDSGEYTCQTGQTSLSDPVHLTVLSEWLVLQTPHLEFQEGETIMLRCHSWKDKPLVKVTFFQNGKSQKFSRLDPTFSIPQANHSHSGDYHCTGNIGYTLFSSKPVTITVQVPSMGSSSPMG

T2: human Fcγ receptor hFcgRIIa (H) (human, UniProt P12318 36-217)
T2 construct: also called FcγRIIa (type H); FcγIIA
T2 sequence: T1 chain with R133H

T3: human Fcγ receptor hFcgRIIb (human, UniProt P31994 43-217, limits assumed)
T3 construct: Construct used in the SPR assay is not described; also called FcγRIIb; FcγIIB
T3 sequence: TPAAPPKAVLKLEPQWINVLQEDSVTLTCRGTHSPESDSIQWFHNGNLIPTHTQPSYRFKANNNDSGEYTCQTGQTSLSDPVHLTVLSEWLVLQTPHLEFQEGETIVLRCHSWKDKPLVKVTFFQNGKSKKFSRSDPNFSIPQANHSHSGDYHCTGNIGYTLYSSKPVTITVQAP

B1: TS20 (antibody)
heavy: QVQLQESGPGLVRPSQTLSLTCTVSGYSITSDHAWSWVRQPPGRGLEWIGYISYSGITTYNPSLKSRVTMLRDTSKNQFSLRLSSVTAADTAVYYCARSLARTTAMDYWGQGSLVTVSSASTKGPSVFPLAPSSKSTSGGTAALGCLVKDYFPEPVTVSWNSGALTSGVHTFPAVLQSSGLYSLSSVVTVPSSSLGTQTYICNVNHKPSNTKVDKKVEPKSCDKTHTCPPCPAPELLGGPSVFLFPPKPKDTLMISRTPEVTCVVVDVSHEDPEVKFNWYVDGVEVHNAKTKPREEMYNSTYRVVSVLTVLHQDWLNGKEYKCKVSNSALPHPIEKTISKAKGQPREPQVYTLPPSRDELTKNQVSLTCLVKGFYPSDIAVEWESNGQPENNYKTTPPVLDSDGSFFLYSKLTVDKSRWQQGNVFSCSVMHEALHNHYTQKSLSLSP
light: not shown
notes: anti-IL6R IgG1, G1d with Q295M/K326S/A330H (EU)
B2: TS27 (antibody)
heavy: B1 heavy with M297L, S328A
light: not shown
notes: anti-IL6R IgG1, G1d with Q295L/K326A/A330H (EU)
B3: TS33 (antibody)
heavy: B1 heavy with L236K, L237K, H270K, D272F, Y298G, S300G, N327H, S328K, H332A
light: not shown
notes: anti-IL6R IgG1, G1d with L234K/L235K/H268K/D270F/Q295M/Y296G/S298G/N325H (EU)
B4: TS22 (antibody)
heavy: B1 heavy with M297L
light: not shown
notes: anti-IL6R IgG1, G1d with Q295L/K326S/A330H (EU)
B5: TS36 (antibody)
heavy: B1 heavy with L236K, L237R, S241K, H270K, D272F, Y298G, S300G, N327G, S328K, H332A
light: not shown
notes: anti-IL6R IgG1, G1d with L234K/L235R/S239K/H268K/D270F/Q295M/Y296G/S298G/N325G (EU)
B6: TS24 (antibody)
heavy: B1 heavy with H332Y
light: not shown
notes: anti-IL6R IgG1, G1d with Q295M/K326S/A330Y (EU)
B7: TS21 (antibody)
heavy: B1 heavy with S328A, H332Y
light: not shown
notes: anti-IL6R IgG1, G1d with Q295M/K326A/A330Y (EU)
B8: TS28 (antibody)
heavy: B1 heavy with L236K, L237K, S241K, H270K, D272F, Y298G, S300G, N327G, S328K, H332A
light: not shown
notes: anti-IL6R IgG1, G1d with L234K/L235K/S239K/H268K/D270F/Q295M/Y296G/S298G/N325G (EU)
B9: TS39 (antibody)
heavy: B1 heavy with L236K, L237R, S241K, Y298G, S300G, N327H, S328K, H332A
light: not shown
notes: anti-IL6R IgG1, G1d with L234K/L235R/S239K/Q295M/Y296G/S298G/N325H (EU)
B10: TS31 (antibody)
heavy: B1 heavy with L236K, L237K, S241K, Y298G, S300G, N327H, S328K, H332A
light: not shown
notes: anti-IL6R IgG1, G1d with L234K/L235K/S239K/Q295M/Y296G/S298G/N325H (EU)
B11: TS38 (antibody)
heavy: B1 heavy with L236K, L237R, S241K, Y298G, S300G, N327G, S328K, H332A
light: not shown
notes: anti-IL6R IgG1, G1d with L234K/L235R/S239K/Q295M/Y296G/S298G/N325G (EU)
B12: TS25 (antibody)
heavy: B1 heavy with S328A
light: not shown
notes: anti-IL6R IgG1, G1d with Q295M/K326A/A330H (EU)
B13: TS37 (antibody)
heavy: B1 heavy with L236K, L237R, S241K, H270K, D272F, Y298G, S300G, N327H, S328K, H332A
light: not shown
notes: anti-IL6R IgG1, G1d with L234K/L235R/S239K/H268K/D270F/Q295M/Y296G/S298G/N325H (EU)
B14: TS26 (antibody)
heavy: B1 heavy with M297L, H332Y
light: not shown
notes: anti-IL6R IgG1, G1d with Q295L/K326S/A330Y (EU)
B15: TS35 (antibody)
heavy: B1 heavy with L236K, L237K, Y298G, S300G, N327H, S328K, H332A
light: not shown
notes: anti-IL6R IgG1, G1d with L234K/L235K/Q295M/Y296G/S298G/N325H (EU)
B16: TS29 (antibody)
heavy: B1 heavy with L236K, L237K, S241K, H270K, D272F, Y298G, S300G, N327H, S328K, H332A
light: not shown
notes: anti-IL6R IgG1, G1d with L234K/L235K/S239K/H268K/D270F/Q295M/Y296G/S298G/N325H (EU)
B17: TS34 (antibody)
heavy: B1 heavy with L236K, L237K, Y298G, S300G, N327G, S328K, H332A
light: not shown
notes: anti-IL6R IgG1, G1d with L234K/L235K/Q295M/Y296G/S298G/N325G (EU)
B18: TS32 (antibody)
heavy: B1 heavy with L236K, L237K, H270K, D272F, Y298G, S300G, N327G, S328K, H332A
light: not shown
notes: anti-IL6R IgG1, G1d with L234K/L235K/H268K/D270F/Q295M/Y296G/S298G/N325G (EU)
B19: TS30 (antibody)
heavy: B1 heavy with L236K, L237K, S241K, Y298G, S300G, N327G, S328K, H332A
light: not shown
notes: anti-IL6R IgG1, G1d with L234K/L235K/S239K/Q295M/Y296G/S298G/N325G (EU)
B20: TS23 (antibody)
heavy: B1 heavy with M297L, S328A, H332Y
light: not shown
notes: anti-IL6R IgG1, G1d with Q295L/K326A/A330Y (EU)

Each binder was assayed against T4, human Fcγ receptor hFcgRIa (human, UniProt P12314 16-292, limits assumed) (assay: SPR, antibody captured on Protein A).
T4 construct: Construct used in the SPR assay is not described; also called hFcγRIa; FcγI
Method: (§1) Furthermore, binding ability to hFcgRs was measured by the method described in Reference Example 3.
(§2) Interactions between antibodies and hFcgRs (hFcgRIa, hFcgRIIa(R), hFcgRIIa(H), hFcgRIIb, hFcgRIIIa(F), and hFcgRIIIa(V)) were analyzed using Biacore T100 (GE Healthcare). HBS-EP+(GE Healthcare) was used for the running buffer, and the measurement temperature was set at 25° C. Protein A (Invitrogen) was immobilized by the amino coupling method, and an antibody of interest was captured thereon. Then, hFcγR solutions diluted using the running buffer were injected to allow interaction with the captured antibody at a flow rate of 30 μL/min for five minutes for hFcγRIa, and at a flow rate of 5 μL/min for one minute for the other hFcγRs. […] Since the hFcγR binding level depends on the amount of captured antibodies, the FcgR-binding levels were corrected so that the capture level of each antibody would be 200 RU (resonance unit) for hFcgRIa and 1000 RU (resonance unit) for the other hFcgRs. The captured antibodies were washed by allowing 10 mM glycine-HCl (pH 1.5) to react for 30 seconds at a flow rate of 30 μL/min to recycle the chip for reuse.

T4 sequence (P12314 16-292 limits assumed): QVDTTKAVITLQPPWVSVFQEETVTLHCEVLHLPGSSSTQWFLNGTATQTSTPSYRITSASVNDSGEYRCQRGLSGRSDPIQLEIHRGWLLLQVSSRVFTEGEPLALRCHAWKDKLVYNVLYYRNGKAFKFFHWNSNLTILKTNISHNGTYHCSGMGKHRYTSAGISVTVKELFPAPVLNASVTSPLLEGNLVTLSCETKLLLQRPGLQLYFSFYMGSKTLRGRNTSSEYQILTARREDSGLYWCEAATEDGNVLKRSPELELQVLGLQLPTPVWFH

| Binder | binding relative to G1 (=100) |
| --- | --- |
| B1 | 106 |
| B2 | 106 |
| B3 | -0.9 |
| B4 | 108 |
| B5 | -0.4 |
| B6 | 107 |
| B7 | 107 |
| B8 | 5.8 |
| B9 | 0 |
| B10 | 0.2 |
| B11 | 0.3 |
| B12 | 105 |
| B13 | 0.6 |
| B14 | 107 |
| B15 | 0.5 |
| B16 | 5.1 |
| B17 | -0.9 |
| B18 | -0.5 |
| B19 | 0.1 |

Biological target: T1, human Fcγ receptor hFcgRIIa (R)
Assay: SPR, antibody captured on Protein A
Method: as §1, §2

| Binder | binding relative to G1 (=100) |
| --- | --- |
| B1 | 116 |
| B2 | 158 |
| B3 | 1.2 |
| B4 | 153 |
| B5 | 1 |
| B6 | 107 |
| B20 | 153 |
| B7 | 113 |
| B8 | 1.9 |
| B9 | 1.5 |
| B10 | 1.3 |
| B11 | 2.3 |
| B12 | 123 |
| B13 | 0.9 |
| B14 | 145 |
| B15 | 1.1 |
| B16 | 2.1 |
| B17 | 0.9 |
| B18 | 0.9 |
| B19 | 1.2 |

The binders below were run against T2, human Fcγ receptor hFcgRIIa (H) (assay: SPR, antibody captured on Protein A).
Method: as §1, §2

| Binder | binding relative to G1 (=100) |
| --- | --- |
| B1 | 132 |
| B2 | 151 |
| B3 | 0.7 |
| B4 | 157 |
| B5 | 0.7 |
| B6 | 122 |
| B20 | 145 |
| B8 | 1.7 |
| B9 | 1 |
| B10 | -0.5 |
| B11 | 1.7 |
| B12 | 125 |
| B13 | 0.7 |
| B15 | 1.7 |
| B16 | 0.7 |
| B17 | 1.4 |
| B18 | 1 |
| B19 | 0.2 |

The binders below were run against T3, human Fcγ receptor hFcgRIIb (assay: SPR, antibody captured on Protein A).
Method: as §1, §2

| Binder | binding relative to G1 (=100) |
| --- | --- |
| B1 | 131 |
| B2 | 242 |
| B3 | 4.6 |
| B4 | 232 |
| B5 | 4.1 |
| B6 | 114 |
| B20 | 226 |
| B7 | 121 |
| B9 | 2.5 |
| B10 | 3.6 |
| B12 | 137 |
| B13 | 4.5 |
| B14 | 208 |
| B17 | 4.2 |
| B18 | 1.5 |
| B19 | 3.8 |

The binders below were run against T5, human Fcγ receptor hFcgRIIIa (V) (human, UniProt P08637 17-208) (assay: SPR, antibody captured on Protein A).
T5 construct: also called FcγRIIIa allotype V158; FcγIIIA
Method: as §1, §2

T5 sequence (P08637 other isoform, or with tags, fused parts or gaps limits assumed): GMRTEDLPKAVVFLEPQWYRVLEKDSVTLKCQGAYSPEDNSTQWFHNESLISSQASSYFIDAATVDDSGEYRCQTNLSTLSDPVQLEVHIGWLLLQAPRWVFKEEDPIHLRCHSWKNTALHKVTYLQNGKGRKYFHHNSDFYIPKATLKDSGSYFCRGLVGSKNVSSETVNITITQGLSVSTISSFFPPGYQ

| Binder | binding relative to G1 (=100) |
| --- | --- |
| B1 | 91.2 |
| B3 | 1 |
| B4 | 107 |
| B5 | 1.1 |
| B6 | 121 |
| B20 | 137 |
| B7 | 124 |
| B8 | 1.7 |
| B9 | 0.8 |
| B10 | 1.2 |
| B11 | 0.9 |
| B12 | 92.8 |
| B13 | 0.6 |
| B14 | 134 |
| B15 | 1.5 |
| B16 | 1.6 |
| B17 | 1.5 |
| B18 | 0.9 |
| B19 | 1.1 |
